# Laboratory results reported in patent US20060211075.
# T1: peptide 23, Dap-substituted pyrene derivative at Y+3 (not fully specified)
# T1 chain: EEEIYGEXEA
# B1: Fes/Fps (protein)
# chain: MGFSSELCSPQGHGVLQQMQEAELRLLEGMRKWMAQRVKSDREYAGLLHHMSLQDSGGQSRAISPDSPISQSWAEITSQTEGLSRLLRQHAEDLNSGPLSKLSLLIRERQQLRKTYSEQWQQLQQELTKTHSQDIEKLKSQYRALARDSAQAKRKYQEASKDKDRDKAKDKYVRSLWKLFAHHNRYVLGVRAAQLHHQHHHQLLLPGLLRSLQDLHEEMACILKEILQEYLEISSLVQDEVVAIHREMAAAAARIQPEAEYQGFLRQYGSAPDVPPCVTFDESLLEEGEPLEPGELQLNELTVESVQHTLTSVTDELAVATEMVFRRQEMVTQLQQELRNEEENTHPRERVQLLGKRQVLQEALQGLQVALCSQAKLQAQQELLQTKLEHLGPGEPPPVLLLQDDRHSTSSSEQEREGGRTPTLEILKSHISGIFRPKFSLPPPLQLIPEVQKPLHEQLWYHGAIPRAEVAELLVHSGDFLVRESQGKQEYVLSVLWDGLPRHFIIQSLDNLYRLEGEGFPSIPLLIDHLLSTQQPLTKKSGVVLHRAVPKDKWVLNHEDLVLGEQIGRGNFGEVFSGRLRADNTLVAVKSCRETLPPDLKAKFLQEARILKQYSHPNIVRLIGVCTQKQPIYIVMELVQGGDFLTFLRTEGARLRVKTLLQMVGDAAAGMEYLESKCCIHRDLAARNCLVTEKNVLKISDFGMSREEADGVYAASGGLRQVPVKWTAPEALNYGRYSSESDVWSFGILLWETFSLGASPYPNLSNQQTREFVEKGGRLPCPELCPDAVFRLMEQCWAYEPGQRPSFSTIYQELQSIRKRHR
# B2: Flt3 (protein)
# chain: HKYKKQFRYESQLQMVQVTGSSDNEYFYVDFREYEYDLKWEFPRENLEFGKVLGSGAFGKVMNATAYGISKTGVSIQVAVKMLKEKADSSEREALMSELKMMTQLGSHENIVNLLGACTLSGPIYLIFEYCCYGDLLNYLRSKREKFHRTWTEIFKEHNFSFYPTFQSHPNSSMPGSREVQIHPDSDQISGLHGNSFHSEDEIEYENQKRLEEEEDLNVLTFEDLLCFAYQVAKGMEFLEFKSCVHRDLAARNVLVTHGKVVKICDFGLARDIMSDSNYVVRGNARLPVKWMAPESLFEGIYTIKSDVWSYGILLWEIFSLGVNPYPGIPVDANFYKLIQNGFKMDQPFYATEEIYIIMQSCWAFDSRKRPSFPNLTSFLGCQLADAEEAMYQNVDGRVSECPHTYQNRRPFSREMDLGLLSPQAQVEDS
# B3: c-Met (protein)
# chain: KKRKQIKDLGSELVRYDARVHTPHLDRLVSARSVSPTTEMVSNESVDYRATFPEDQFPNSSQNGSCRQVQYPLTDMSPILTSGDSDISSPLLQNTVHIDLSALNPELVQAVQHVVIGPSSLIVHFNEVIGRGHFGCVYHGTLLDNDGKKIHCAVKSLNRITDIGEVSQFLTEGIIMKDFSHPNVLSLLGICLRSEGSPLVVLPYMKHGDLRNFIRNETHNPTVKDLIGFGLQVAKGMKYLASKKFVHRDLAARNCMLDEKFTVKVADFGLARDMYDKEYYSVHNKTGAKLPVKWMALESLQTQKFTTKSDVWSFGVLLWELMTRGAPPYPDVNTFDITVYLLQGRRLLQPEYCPDPLYEVMLKCWHPKAEMRPSFSELVSRISAIFSTFIGEHYVHVNATYVNVKCVAPYPSLLSSEDNADDEVDTRPASFWETS
# B4: MLK1 (protein)
# chain: PPIQLLEIDFAELTLEEIIGIGGFGKVYRAFWIGDEVAVKAARHDPDEDISQTIENVRQEAKLFAMLKHPNIIALRGVCLKEPNLCLVMEFARGGPLNRVLSGKRIPPDILVNWAVQIARGMNYLHDEAIVPIIHRDLKSSNILILQKVENGDLSNKILKITDFGLAREWHRTTKMSAAGTYAWMAPEVIRASMFSKGSDVWSYGVLLWELLTGEVPFRGIDGLAVAYGVAMNKLALPIPSTCPEPFAKLMEDCWNPDPHSRPSFTNILDQLTTIEESGFFE
# B5: LynB (protein)
# chain: MGCIKSKGKDSLSDDGVDLKTQPVPESQLLPGQRFQTKDPEEQGDIVVALYPYDGIHPDDLSFKKGEKMKVLEEHGEWWKAKSLLTKKEGFIPSNYVAKLNTLETEEWFFKDITRKDAERQLLAPGNSAGAFLIRESETLKGSFSLSVRDFDPVHGDVIKHYKIRSLDNGGYYISPRITFPCISDMIKHYQKQADGLCRRLEKACISPKPQKPWDKDAWEIPRESIKLVKRLGAGQFGEVWMGYYNNSTKVAVKTLKPGTMSVQAFLEEANLMKTLQHDKLVRLYAVVTREEPIYIITEYMAKGSLLDFLKSDEGGKVLLPKLIDFSAQIAEGMAYIERKNYIHRDLRAANVLVSESLMCKIADFGLARVIEDNEYTAREGAKFPIKWTAPEAINFGCFTIKSDVWSFGILLYEIVTYGKIPYPGRTNADVMTALSQGYRMPRVENCPDELYDIMKMCWKEKAEERPTFDYLQSVLDDFYTATEGQYQQQP
# B6: ZAP-70 (protein)
# chain: MPDPAAHLPFFYGSISRAEAEEHLKLAGMADGLFLLRQCLRSLGGYVLSLVHDVRFHHFPIERQLNGTYAIAGGKAHCGPAELCEFYSRDPDGLPCNLRKPCNRPSGLEPQPGVFDCLRDAMVRDYVRQTWKLEGEALEQAIISQAPQVEKLIATTAHERMPWYHSSLTREEAERKLYSGAQTDGKFLLRPRKEQGTYALSLIYGKTVYHYLISQDKAGKYCIPEGTKFDTLWQLVEYLKLKADGLIYCLKEACPNSSASNASGAAAPTLPAHPSTLTHPQRRIDTLNSDGYTPEPARITSPDKPRPMPMDTSVYESPYSDPEELKDKKLFLKRDNLLIADIELGCGNFGSVRQGVYRMRKKQIDVAIKVLKQGTEKADTEEMMREAQIMHQLDNPYIVRLIGVCQAEALMLVMEMAGGGPLHKFLVGKREEIPVSNVAELLHQVSMGMKYLEEKNFVHRDLAARNVLLVNRHYAKISDFGLSKALGADDSYYTARSAGKWPLKWYAPECINFRKFSSRSDVWSYGVTMWEALSYGQKPYKKMKGPEVMAFIEQGKRMECPPECPPELYALMSDCWIYKWEDRPDFLTVEQRMRACYYSLASKVEGPPGSTQKAEAACA
# B7: Csk (protein)
# chain: MSAIQAAWPSGTECIAKYNFHGTAEQDLPFCKGDVLTIVAVTKDPNWYKAKNKVGREGIIPANYVQKREGVKAGTKLSLMPWFHGKITREQAERLLYPPETGLFLVRESTNYPGDYTLCVSCDGKVEHYRIMYHASKLSIDEEVYFENLMQLVEHYTSDADGLCTRLIKPKVMEGTVAAQDEFYRSGWALNMKELKLLQTIGKGEFGDVMLGDYRGNKVAVKCIKNDATAQAFLAEASVMTQLRHSNLVQLLGVIVEEKGGLYIVTEYMAKGSLVDYLRSRGRSVLGGDCLLKFSLDVCEAMEYLEGNNFVHRDLAARNVLVSEDNVAKVSDFGLTKEASSTQDTGKLPVKWTAPEALREKKFSTKSDVWSFGILLWEIYSFGRVPYPRIPLKDVVPRVEKGYKMDAPDGCPPAVYEVMKNCWHLDAAMRPSFLQLREQLEHIKTHELHL
# Target: T1, peptide 23, Dap-substituted pyrene …
Protein,Km [µM],Vmax [µmol/min/mg],phosphorylation of the peptide (fluorescence)
B1,60,3,
B2,450,4.9,
B3,,,unable to effectively catalyze the phosphorylation of either 23 or 25
B4,,,unable to effectively catalyze the phosphorylation of either 23 or 25
B5,130,4,
B6,,,unable to effectively catalyze the phosphorylation of either 23 or 25
B7,120,0.4,
